Experimental data: article PMC11417369, “DNA sequence and chromatin differentiate sequence-specific transcription factor binding in the human malaria parasite Plasmodium falciparum”

T1: AP2-G D1 (Plasmodium falciparum, UniProt Q8I5I9 2123-2245)
T1 sequence: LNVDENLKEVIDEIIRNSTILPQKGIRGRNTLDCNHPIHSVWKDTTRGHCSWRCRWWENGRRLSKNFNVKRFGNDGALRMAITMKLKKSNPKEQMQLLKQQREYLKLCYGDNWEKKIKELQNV

T2: SIP2 D1 (Plasmodium falciparum, UniProt C6KSN9 177-235)
T2 sequence: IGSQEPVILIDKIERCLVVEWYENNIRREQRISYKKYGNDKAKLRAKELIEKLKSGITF

T3: HDP1 homeodomain-like (Plasmodium falciparum, UniProt Q8IKH4 2990-3078)
T3 sequence: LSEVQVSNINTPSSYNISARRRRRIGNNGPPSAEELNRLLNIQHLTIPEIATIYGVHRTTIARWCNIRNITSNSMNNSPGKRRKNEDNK


Tests used:
Experiment in all cases: gcPBM; about 25 ug protein; PBS, 1% milk, 0.2 mg/ml BSA, salmon testes DNA, 0.03% Triton X-100
AP2-G D1 = molecular target: T1, AP2-G D1; details: tags: N-terminal GST (pGEX-4T-1), kept; label: surface-attached array probe
SIP2 D1 = molecular target: T2, SIP2 D1; details: tags: N-terminal GST (pGEX-4T-1), kept; label: surface-attached array probe
HDP1 homeodomain-like = molecular target: T3, HDP1 homeodomain-like; details: tags: N-terminal GST (pGEX-4T-1), kept; chain copies: 2; label: surface-attached array probe
AP2-I D3 = AP2-I D3 (Plasmodium falciparum, UniProt Q8IJW6 910-1027); details: tags: N-terminal GST (pGEX-4T-1), kept; label: surface-attached array probe

Row | Binder | binding signal (AP2-G D1) | binding signal (SIP2 D1) | binding signal (HDP1 homeodomain-like) | binding signal (AP2-I D3)
1 | XGTACX_site3301 (dsDNA) DNA 1: TTTTCTTTTTGTTCGTGTACACACATGAAATTTATA DNA 2: TATAAATTTCATGTGTGTACACGAACAAAAAGAAAA | 13 ln median PBM intensity, better of two orientations |  |  | 
2 | XGTACX_site6396 (dsDNA) DNA 1: CCTATAATTAGGGGTAGTACACAAAAAAAAAAAAAA DNA 2: TTTTTTTTTTTTTTGTGTACTACCCCTAATTATAGG | 12.8 ln median PBM intensity, better of two orientations |  |  | 
3 | GTGCAC_negctrl_site189 (dsDNA) DNA 1: AACAAATATGATTTTTTATATATTTTTAAATTTGGT DNA 2: ACCAAATTTAAAAATATATAAAAAATCATATTTGTT |  | 6.75 ln median PBM intensity, better of two orientations | 5.9 ln median PBM intensity, better of two orientations | 7.09 ln median PBM intensity, better of two orientations
4 | GTGCAC_negctrl_site656 (dsDNA) DNA 1: ATTATTTATTTATTTTTTTTTTTTTTCTCTTTTCCT DNA 2: AGGAAAAGAGAAAAAAAAAAAAAATAAATAAATAAT |  | 6.87 ln median PBM intensity, better of two orientations | 6.27 ln median PBM intensity, better of two orientations | 6.88 ln median PBM intensity, better of two orientations
5 | XGTACX_site5429 (dsDNA) DNA 1: ATGGACATCTATTGTTGTACACATTTTCCCATAACA DNA 2: TGTTATGGGAAAATGTGTACAACAATAGATGTCCAT | 13.1 ln median PBM intensity, better of two orientations |  |  | 
6 | XGTACX_site718 (dsDNA) DNA 1: GTATTAATTTTAAGGTGTACGCAAAAAATTTAATTT DNA 2: AAATTAAATTTTTTGCGTACACCTTAAAATTAATAC | 13.1 ln median PBM intensity, better of two orientations |  |  | 
7 | XGTACX_site4176 (dsDNA) DNA 1: ATAAATTTAAATAGGAGTACACAGCTTTATATTTTG DNA 2: CAAAATATAAAGCTGTGTACTCCTATTTAAATTTAT | 13 ln median PBM intensity, better of two orientations |  |  | 
8 | GTGCAC_negctrl_site246 (dsDNA) DNA 1: TTAATTCTATACATAAATTATGTTTACATAAAGAAT DNA 2: ATTCTTTATGTAAACATAATTTATGTATAGAATTAA |  | 6.9 ln median PBM intensity, better of two orientations | 6.34 ln median PBM intensity, better of two orientations | 7.16 ln median PBM intensity, better of two orientations
9 | GTGCAC_negctrl_site667 (dsDNA) DNA 1: GTAAGAATATTTATAAATGTATAATTTGTATTATTT DNA 2: AAATAATACAAATTATACATTTATAAATATTCTTAC |  | 6.8 ln median PBM intensity, better of two orientations | 6.29 ln median PBM intensity, better of two orientations | 7.22 ln median PBM intensity, better of two orientations
10 | GTGCAC_negctrl_site715 (dsDNA) DNA 1: TTTTTTCTTTTATGTGAAATGTAATATTGTTATATA DNA 2: TATATAACAATATTACATTTCACATAAAAGAAAAAA |  |  | 6.24 ln median PBM intensity, better of two orientations | 7.2 ln median PBM intensity, better of two orientations
11 | XGTACX_site7325 (dsDNA) DNA 1: TTTTTTTTATTTTGTTGTACGCTTATTTGTATATAT DNA 2: ATATATACAAATAAGCGTACAACAAAATAAAAAAAA | 12.8 ln median PBM intensity, better of two orientations |  |  | 
12 | GTGCAC_negctrl_site367 (dsDNA) DNA 1: TTTTAAAAAAAAAAAAAATAAGATAAAATTAAATAA DNA 2: TTATTTAATTTTATCTTATTTTTTTTTTTTTTAAAA |  | 6.6 ln median PBM intensity, better of two orientations | 6.01 ln median PBM intensity, better of two orientations | 6.89 ln median PBM intensity, better of two orientations
13 | XGTACX_site820 (dsDNA) DNA 1: ACAATTGAAGAAATACGTACATAAAGAAAAACTAGT DNA 2: ACTAGTTTTTCTTTATGTACGTATTTCTTCAATTGT | 12.9 ln median PBM intensity, better of two orientations |  |  | 
14 | GTGCAC_negctrl_site723 (dsDNA) DNA 1: AGCATTTTAAAAGAAAAAAAAAAAAAAAAAAAAATA DNA 2: TATTTTTTTTTTTTTTTTTTTTTCTTTTAAAATGCT |  | 6.8 ln median PBM intensity, better of two orientations | 5.84 ln median PBM intensity, better of two orientations | 7.05 ln median PBM intensity, better of two orientations
15 | GTGCAC_site10459 (dsDNA) DNA 1: TTATAAATGTGCGTAGTGCATAAACAAAAAAAAAAT DNA 2: ATTTTTTTTTTGTTTATGCACTACGCACATTTATAA |  | 8.72 ln median PBM intensity, better of two orientations | 10.2 ln median PBM intensity, better of two orientations | 11.5 ln median PBM intensity, better of two orientations
16 | XGTACX_site6231 (dsDNA) DNA 1: ATGTTTTATAAAAGGCGTACACATATATTTAAGTAA DNA 2: TTACTTAAATATATGTGTACGCCTTTTATAAAACAT | 13.5 ln median PBM intensity, better of two orientations |  |  | 
17 | GTGCAC_negctrl_site301 (dsDNA) DNA 1: TTTATTTATTTATATTTTTTTATATAATTTATATAT DNA 2: ATATATAAATTATATAAAAAAATATAAATAAATAAA |  |  | 6.28 ln median PBM intensity, better of two orientations | 7.13 ln median PBM intensity, better of two orientations
18 | XGTACX_site96 (dsDNA) DNA 1: TGGAACCATAAAAAGTGTACACATATAAAAAATATG DNA 2: CATATTTTTTATATGTGTACACTTTTTATGGTTCCA | 12.8 ln median PBM intensity, better of two orientations |  |  | 
